Assay results taken from US20020004485A1.
One block for each substance: values may come before it.

What was measured:
[1] = target: atypical MC receptor of Cos-7 cells; assay: estimated from the shift of the α-MSH cAMP curve in Cos-7 cells (functional)
[2] = target: human MCR-1 receptor (human) (UniProt Q01726); assay: cell-based or functional assay
[3] = target: atypical MC receptor of Cos-7 cells; assay: cell-based or functional assay
[4] = target: human MCR-4 receptor (human) (UniProt P32245); assay: cell-based or functional assay
[5] = target: human MCR-3 receptor (human) (UniProt P41968); assay: cell-based or functional assay
[6] = target: MC receptor endogenous to Xenopus laevis melanophores (Xenopus laevis); assay: cell-based or functional assay
[7] = target: MC receptor endogenous to Xenopus laevis melanophores (Xenopus laevis); assay: Schild plot; antagonism of α-MSH pigment dispersion in Xenopus melanophores (functional)
[8] = target: ACTH (MCR-2) receptor endogenous to murine Y1 adrenocortical cells (murine) (UniProt Q64326); assay: cell-based or functional assay
ACTH (MCR-2) receptor endogenous to murine Y1 adrenocortical cells (murine), sequence (Q64326 whole entry): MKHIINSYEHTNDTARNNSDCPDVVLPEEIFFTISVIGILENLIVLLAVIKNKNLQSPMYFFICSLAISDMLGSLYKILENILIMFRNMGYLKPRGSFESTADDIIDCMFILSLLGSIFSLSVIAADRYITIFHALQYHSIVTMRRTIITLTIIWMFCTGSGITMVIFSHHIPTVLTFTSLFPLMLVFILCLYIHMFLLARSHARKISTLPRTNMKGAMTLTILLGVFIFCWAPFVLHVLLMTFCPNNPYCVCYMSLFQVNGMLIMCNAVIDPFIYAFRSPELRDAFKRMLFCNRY

human MCR-1 receptor (human), sequence (Q01726 whole entry): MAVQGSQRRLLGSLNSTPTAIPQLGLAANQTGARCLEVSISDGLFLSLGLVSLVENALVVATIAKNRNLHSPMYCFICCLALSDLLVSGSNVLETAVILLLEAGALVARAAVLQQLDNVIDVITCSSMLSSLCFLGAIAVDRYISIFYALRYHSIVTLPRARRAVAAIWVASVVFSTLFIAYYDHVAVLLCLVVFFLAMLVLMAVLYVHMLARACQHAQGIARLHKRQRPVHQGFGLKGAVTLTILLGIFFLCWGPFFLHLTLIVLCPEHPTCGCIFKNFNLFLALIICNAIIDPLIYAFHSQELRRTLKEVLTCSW
human MCR-4 receptor (human), sequence (P32245 whole entry): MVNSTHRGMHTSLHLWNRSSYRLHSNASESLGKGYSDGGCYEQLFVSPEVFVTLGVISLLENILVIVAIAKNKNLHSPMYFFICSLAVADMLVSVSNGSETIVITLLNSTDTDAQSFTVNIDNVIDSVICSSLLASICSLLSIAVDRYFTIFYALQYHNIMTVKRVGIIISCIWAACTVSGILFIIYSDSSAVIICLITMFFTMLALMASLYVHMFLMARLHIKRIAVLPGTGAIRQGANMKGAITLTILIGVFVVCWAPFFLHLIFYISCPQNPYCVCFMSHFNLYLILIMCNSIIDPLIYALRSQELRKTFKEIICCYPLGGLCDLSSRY
human MCR-3 receptor (human), sequence (P41968 whole entry): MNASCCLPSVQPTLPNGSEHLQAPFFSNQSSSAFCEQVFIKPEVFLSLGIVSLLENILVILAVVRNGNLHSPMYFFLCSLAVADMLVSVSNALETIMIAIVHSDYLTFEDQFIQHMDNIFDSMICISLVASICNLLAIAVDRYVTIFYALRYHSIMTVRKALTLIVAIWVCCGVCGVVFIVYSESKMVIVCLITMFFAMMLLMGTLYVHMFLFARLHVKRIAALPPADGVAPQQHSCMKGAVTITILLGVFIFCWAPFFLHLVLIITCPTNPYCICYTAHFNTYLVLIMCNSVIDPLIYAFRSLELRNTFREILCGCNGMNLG

- Kd [1]: 1000 nM
- EC50 of α-MSH in the presence of 30 µM dynorphin A(1-13)-NH2, MCR-1 [2]: 2100 nM
- fold shift of the α-MSH EC50 by 30 µM dynorphin A(1-13)-NH2 [3]: 50 fold
- EC50 of α-MSH in the presence of 30 µM dynorphin A(1-13)-NH2, MCR-4 [4]: 2000 nM
- EC50 of α-MSH in the presence of 30 µM dynorphin A(1-13)-NH2, MCR-3 [5]: 1600 nM
- IC50 nM in Frog Melanophore Assay [6]: 145 nM
- Ki [7]: 71 nM
Substance: dynorphin A(1-13)-NH2 (from UniProt P01213 207-219) (peptide)

- dose ratio of α-MSH dose-response curves with and without 30 µM dynorphin A(2-13), MCR-1 [2]: 250
- EC50 of ACTH-(1-24) in the presence of 30 µM dynorphin A(2-13) [8]: 28 nM
- fold shift to the right of the concentration-response curve of ACTH-(1-24) at 30 µM [8]: 15 fold
- dose ratio of α-MSH dose-response curves with and without 30 µM dynorphin A(2-13), MCR-4 [4]: 147
- dose ratio of α-MSH dose-response curves with and without 30 µM dynorphin A(2-13), MCR-3 [5]: 128
- Ki [7]: 79 nM
Substance: dynorphin A(2-13) (from UniProt P01213 176-187) (peptide)

- IC50 in the frog MCR assay [6]: > 10000 nM
Substance: neurotensin(8-13) analog, D-Arg-Arg-Pro-Trp-Ile-Leu (peptide)

- Ki [7]: 12 nM
- pKi [7]: 7.91
Substance: p-anisoyl-[D-Arg^6,9, D-Lys^11, D-Leu^12] dynorphin A(6-12)-NH2 (peptide)

- IC50 in the frog MCR assay [6]: > 10000 nM
Substance: urocortin (peptide)
